Data published in article PMC11726454.

Target: TLR4 human recombinant protein (HY-P73586, MCE) (human) (UniProt O00206)
Assay: SPR

Chain of UniProt O00206 (O00206 24-631, one chain of several): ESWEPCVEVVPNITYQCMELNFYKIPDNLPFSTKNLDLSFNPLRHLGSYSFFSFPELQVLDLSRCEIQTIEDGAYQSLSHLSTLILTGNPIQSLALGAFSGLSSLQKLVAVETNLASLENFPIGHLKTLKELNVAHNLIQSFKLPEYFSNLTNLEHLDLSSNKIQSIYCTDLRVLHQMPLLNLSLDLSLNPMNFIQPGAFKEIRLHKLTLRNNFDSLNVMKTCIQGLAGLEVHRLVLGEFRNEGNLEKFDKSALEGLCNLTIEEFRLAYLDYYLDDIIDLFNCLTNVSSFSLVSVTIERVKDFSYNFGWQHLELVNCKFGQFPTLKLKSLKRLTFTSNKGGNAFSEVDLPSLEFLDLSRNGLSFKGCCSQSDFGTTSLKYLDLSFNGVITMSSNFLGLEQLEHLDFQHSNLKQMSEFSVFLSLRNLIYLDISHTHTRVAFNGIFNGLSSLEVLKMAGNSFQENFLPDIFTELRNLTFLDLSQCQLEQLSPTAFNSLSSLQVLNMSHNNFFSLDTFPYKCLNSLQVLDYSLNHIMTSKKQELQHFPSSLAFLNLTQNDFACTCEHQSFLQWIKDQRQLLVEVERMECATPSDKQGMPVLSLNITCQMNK

Substance “PBP1B without the GST tag, non-transmembrane domain (domain or fragment)” has a Kd of 0.269 nM.
